The labels stand for the following.
B1: ISOP194HR9P1B10 (designed binder, not shown: small tags and cut ends)
chain: LPAPKNLVVSRVTEDSARLSWTAPDAAFDSFPIRYYERANGEAIVLTVPGSERSYDLTGLKPGTEYIVWIYGVKGGGRSGPLSAIFTT
notes: FN3 domain; E. coli lysate in the ELISA
B2: ISOP194GR9P1F6 (designed binder, not shown: small tags and cut ends)
chain: LPAPKNLVVSRVTEDSARLSWTAPDAAFDSFWIDYWERLSEGEAIALRVPGSERSYDLTGLKPGTEYYVWIVGVKGGKFSQPLRAWFTT
notes: as for B1
B3: ISOP194GR9P1F9 (designed binder, not shown: small tags and cut ends)
chain: LPAPKNLVVSRVTEDSARLSWTAPDAAFDSFWIFYNERWQNGEAIRLIVPGSERSYDLTGLKPGTEYSVIIPGVKGGRNSFPLWAWFTT
notes: as for B1
B4: ISOP121BR5P1B7 (designed binder, not shown: small tags and cut ends)
chain: LPAPKNLVVSRITEDSARLSWKWEEGFFDSFLIQYQESEKVGEAIVLTVPGSERSYDLTGLKPGTEYTVSIYGVYQRHASAFVSNPLSAIFTT
notes: as for B1
B5: ISOP194AR9P1D11 (designed binder, not shown: small tags and cut ends)
chain: LPAPKNLVVSRVTEDSGRLSWQHHISFFDSFLIQYQESEKVGEAIVLTVPGSERSYDLTGLKPGTEYTVSIYGVYNRKVNFYSNPLSAIFTT
notes: as for B1
B6: ISOP194ER9P1E6 (designed binder, not shown: small tags and cut ends)
chain: LPAPKNLVVSRVTEDSARLSWTAPDAAFDSFWIKYYEKRNPGEAIVLTVPGSERSYDLTGLKPGTEYLVIISGVKGGSRSVPLSAIFTT
notes: as for B1
B7: ISOP121BR5P1D3 (designed binder, not shown: small tags and cut ends)
chain: LPAPKNLVVSRVTEDSARLSWYEDNTERFDSFLIQYQESEKVGEAIVLTVPGSERSYDLTGLKPGTEYTVSIYGVYIRVQVLWFSNPLSAIFTT
notes: as for B1
B8: ISOP194BR9P1D10 (designed binder, not shown: small tags and cut ends)
chain: B7 chain with G43V
notes: as for B1
B9: ISOP121AR5P1F9 (designed binder, not shown: small tags and cut ends)
chain: LPAPKNLVVSRVTEDSARLSWGWSELIATHFDSFLIQYQESEKVGEAIVLTVPGSERSYDLTGLKPGTEYTVSIYGVYNRKVNFYSNPLSAIFTT
notes: as for B1
B10: ISOP121AR5P1F2 (designed binder, not shown: small tags and cut ends)
chain: B9 chain with V9I
notes: as for B1
B11: ISOP194AR9P1H1 (designed binder, not shown: small tags and cut ends)
chain: B9 chain with G22W, W23R, S24V, E25L, L26G, I27H, A28S, T29H, H30F
notes: as for B1
B12: ISOP121FR5P1G1 (designed binder, not shown: small tags and cut ends)
chain: LPAPKNLVVSRVTEDSARLSWTAPDAAFDSFWIHYTEAPVHGEAIVLTVPGSERSYDLTGLKPGTEYTVVIWGVKGGTWSSPLSAIFTT
notes: as for B1

Residue numbers refer to the chain shown, from its start.

T1 sequence (Q9NZQ7 19-238, change not shown): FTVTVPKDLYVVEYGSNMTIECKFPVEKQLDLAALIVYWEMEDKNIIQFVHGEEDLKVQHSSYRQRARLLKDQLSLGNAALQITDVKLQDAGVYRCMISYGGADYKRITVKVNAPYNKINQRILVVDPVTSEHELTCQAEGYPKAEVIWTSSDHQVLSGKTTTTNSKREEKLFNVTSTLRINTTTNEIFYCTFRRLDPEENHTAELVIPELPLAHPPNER

In one assay the target is human serum albumin (human) (UniProt P02768). Kind of assay: ELISA, lysate on plate-bound antigen. Background: An ELISA detects its analyte on a solid surface through an enzyme-linked reagent.
human serum albumin (human), sequence (P02768 25-609 limits assumed): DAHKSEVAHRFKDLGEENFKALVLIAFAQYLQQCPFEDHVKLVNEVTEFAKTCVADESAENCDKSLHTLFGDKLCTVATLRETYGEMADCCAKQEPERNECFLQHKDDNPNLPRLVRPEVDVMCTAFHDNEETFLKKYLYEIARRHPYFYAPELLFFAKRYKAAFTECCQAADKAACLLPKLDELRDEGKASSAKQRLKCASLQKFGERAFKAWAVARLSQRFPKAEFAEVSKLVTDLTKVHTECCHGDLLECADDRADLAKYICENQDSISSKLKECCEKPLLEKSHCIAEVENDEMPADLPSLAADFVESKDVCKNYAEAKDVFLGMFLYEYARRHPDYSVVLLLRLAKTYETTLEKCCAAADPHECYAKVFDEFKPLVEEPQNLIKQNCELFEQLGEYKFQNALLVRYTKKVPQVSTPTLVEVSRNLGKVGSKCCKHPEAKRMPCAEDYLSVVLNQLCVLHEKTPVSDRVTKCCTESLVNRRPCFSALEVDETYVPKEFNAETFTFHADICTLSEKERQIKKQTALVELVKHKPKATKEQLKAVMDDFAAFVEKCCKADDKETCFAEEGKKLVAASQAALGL
In the case of B1, the ELISA HSA (RSU) came out at 1840 RSU.

On to B2, for which the ELISA HSA (RSU) is 1200 RSU.

B3 came in with an ELISA HSA (RSU) of 800 RSU.

In turn, B4 registered an ELISA HSA (RSU) of 480 RSU.

As for B5, the ELISA HSA (RSU) was 12700 RSU.

For the molecule B6, the ELISA HSA (RSU) came to 720 RSU.

Turning to B7, the ELISA HSA (RSU) was found to be 800 RSU.

On to B8, for which the ELISA HSA (RSU) worked out at 1120 RSU.

Take B9: the ELISA HSA (RSU) stood at 1040 RSU.

B10 displayed an ELISA HSA (RSU) of 960 RSU.

Consider B11, for which the ELISA HSA (RSU) amounted to 6800 RSU.

In turn, B12 had an ELISA HSA (RSU) of 400 RSU.

A further assay concerns the target unrelated Fc-fused recombinant protein. Kind of assay: ELISA, lysate on plate-bound antigen.
B1: the ELISA Fc Control (RSU) came out at 560 RSU.

On to B2, for which the ELISA Fc Control (RSU) worked out at 400 RSU.

For B3, the ELISA Fc Control (RSU) was determined as 320 RSU.

Regarding B4, the ELISA Fc Control (RSU) turned out to be 640 RSU.

Take B5: the ELISA Fc Control (RSU) was 28200 RSU.

For B6, the ELISA Fc Control (RSU) amounted to 240 RSU.

Turning to B7, the ELISA Fc Control (RSU) came to 800 RSU.

Turning to B8, the ELISA Fc Control (RSU) was found to be 720 RSU.

In the case of B9, the ELISA Fc Control (RSU) was determined as 1120 RSU.

Consider B10, for which the ELISA Fc Control (RSU) came out at 880 RSU.

Turning to B11, the ELISA Fc Control (RSU) came to 15700 RSU.

For B12, the ELISA Fc Control (RSU) was determined as 640 RSU.

A further assay has as its target T1, recombinant biotinylated PD-L1 (rhPD-L1/Fc Chimera, R&D Systems 156-B7) (human, UniProt Q9NZQ7 19-238, biotinylated (sites not given)).
T1 construct: Bought Fc chimera; also called human PD-L1
The experiment in a line: ELISA, lysate on plate-bound antigen. On the procedure: Streptavidin-coated Maxisorp plates (Nunc catalog 436110) were blocked for 1 h in Starting Block T20 (Pierce) and then coated with biotinylated PD-L1 (using same antigen as in panning) or negative controls (an unrelated Fc-fused recombinant protein and human serum albumin) for 1 h. Plates were rinsed with TBST and diluted lysate was applied to plates for 1 h. Following additional rinses, wells were treated with HRP-conjugated anti-FN3 domain antibody (PAB25) for 1 h and then assayed with POD (Roche catalog 11582950001).
Turning to B1, the “ELISA PD-L1 Fc (RSU)” value turned out to be 385000 RSU.

For the molecule B2, the “ELISA PD-L1 Fc (RSU)” value was 319000 RSU.

On to B3, for which the “ELISA PD-L1 Fc (RSU)” value stood at 105000 RSU.

B4: the “ELISA PD-L1 Fc (RSU)” value is 11400 RSU.

As for B5, the “ELISA PD-L1 Fc (RSU)” value was 1.04e+06 RSU.

Regarding B6, the “ELISA PD-L1 Fc (RSU)” value was 8.98e+06 RSU.

B7: the “ELISA PD-L1 Fc (RSU)” value was 75800 RSU.

As for B8, the “ELISA PD-L1 Fc (RSU)” value came to 1.67e+06 RSU.

As to B9, the “ELISA PD-L1 Fc (RSU)” value came out at 136000 RSU.

In the case of B10, the “ELISA PD-L1 Fc (RSU)” value was 51000 RSU.

Turning to B11, the “ELISA PD-L1 Fc (RSU)” value was found to be 2.14e+07 RSU.

With B12, the “ELISA PD-L1 Fc (RSU)” value is 10000 RSU.

The values are drawn from patent publication US20180162928A1 (Janssen / Centocor, published 2018).
